Experimental data published in patent publication US9598677B2, “Use of human biliverdin reductase and fragments thereof for the treatment of protein kinase C-delta and ERK related conditions” (University of Rochester, priority 2009, dated 2017).
Ends that are not written are not given here. * marks the point of attachment. Myristoyl = CCCCCCCCCCCCCC(=O)*

Key:
[1] = molecular target: T1, PKC-ζ (Homo sapiens, UniProt Q05513); experiment: PKC-ζ kinase assay in vitro; assay type: biochemical; conditions: MBP substrate, higher concentrations required than for PKC-δ, FIG. 5D
T1 construct: purchased Millipore
T1 sequence (Q05513 1-592): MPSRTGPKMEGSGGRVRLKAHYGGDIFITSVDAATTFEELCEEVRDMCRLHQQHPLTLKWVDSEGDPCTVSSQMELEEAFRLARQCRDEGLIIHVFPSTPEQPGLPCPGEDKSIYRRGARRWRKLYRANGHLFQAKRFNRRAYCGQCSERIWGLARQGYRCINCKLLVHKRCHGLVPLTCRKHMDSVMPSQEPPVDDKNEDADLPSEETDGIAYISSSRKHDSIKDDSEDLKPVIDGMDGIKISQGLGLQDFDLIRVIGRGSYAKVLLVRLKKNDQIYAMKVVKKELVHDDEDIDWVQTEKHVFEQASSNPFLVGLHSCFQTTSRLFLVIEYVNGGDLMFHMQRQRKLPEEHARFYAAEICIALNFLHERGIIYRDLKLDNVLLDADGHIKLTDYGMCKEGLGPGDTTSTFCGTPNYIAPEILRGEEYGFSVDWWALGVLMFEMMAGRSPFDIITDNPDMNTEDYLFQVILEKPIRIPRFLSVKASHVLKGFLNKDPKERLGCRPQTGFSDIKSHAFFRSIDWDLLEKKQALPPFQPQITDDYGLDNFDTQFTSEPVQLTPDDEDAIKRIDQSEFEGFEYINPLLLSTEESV
Method: (§1) Measurement of PKC-β and PKC-ζ activities. Recombinant PKC-βII (Calbiochem) was assayed in vitro in 20 mM HEPES pH 7.2, 15 mM MgCl2, 0.2 mM CaCl2, 1 mM DTT, 25 mM β-glycerophosphate, 50 μg/ml phosphatidylserine and 5 μg/ml diacylglycerol, using 12.5 μM MBP as substrate, using 5 ng of enzyme per 50 μl reaction. 100 μM ATP (containing [γ^32P]-ATP (as above) was used to start the reaction, and incorporation was determined using p81 filter binding (Maines et al., “Human Biliverdin Reductase: A Previously Unknown Activator of Protein Kinase C-βII,” J. Biol. Chem. 282:8110-8122 (2007), which is hereby incorporated by reference in its entirety). Similarly, recombinant PKC-ζ(Millipore) was assayed in 20 mM MOPS pH 7.2, 15 mM MgCl2, 0.2 mM EDTA, with 12.5 μM MBP as substrate, again using 5 ng of enzyme per 50 μl reaction (Lerner-Marmarosh et al., “Regulation of TNF-alpha-Activated PKC-zeta Signaling By the Human Biliverdin Reductase: Identification of Activating and Inhibitory Domains of the Reductase,” FASEB J. 21:3949-3962 (2007), which is hereby incorporated by reference in its entirety). Otherwise, reaction conditions were as for PKC-βII.

[2] = molecular target: T2, PKC-βII (Homo sapiens, UniProt P05771); experiment: PKC-βII kinase assay in vitro; assay type: biochemical; conditions: MBP substrate, concentrations that markedly inhibited PKC-δ, FIG. 5D
T2 construct: purchased Calbiochem
T2 sequence (P05771 1-673 isoform P05771-2): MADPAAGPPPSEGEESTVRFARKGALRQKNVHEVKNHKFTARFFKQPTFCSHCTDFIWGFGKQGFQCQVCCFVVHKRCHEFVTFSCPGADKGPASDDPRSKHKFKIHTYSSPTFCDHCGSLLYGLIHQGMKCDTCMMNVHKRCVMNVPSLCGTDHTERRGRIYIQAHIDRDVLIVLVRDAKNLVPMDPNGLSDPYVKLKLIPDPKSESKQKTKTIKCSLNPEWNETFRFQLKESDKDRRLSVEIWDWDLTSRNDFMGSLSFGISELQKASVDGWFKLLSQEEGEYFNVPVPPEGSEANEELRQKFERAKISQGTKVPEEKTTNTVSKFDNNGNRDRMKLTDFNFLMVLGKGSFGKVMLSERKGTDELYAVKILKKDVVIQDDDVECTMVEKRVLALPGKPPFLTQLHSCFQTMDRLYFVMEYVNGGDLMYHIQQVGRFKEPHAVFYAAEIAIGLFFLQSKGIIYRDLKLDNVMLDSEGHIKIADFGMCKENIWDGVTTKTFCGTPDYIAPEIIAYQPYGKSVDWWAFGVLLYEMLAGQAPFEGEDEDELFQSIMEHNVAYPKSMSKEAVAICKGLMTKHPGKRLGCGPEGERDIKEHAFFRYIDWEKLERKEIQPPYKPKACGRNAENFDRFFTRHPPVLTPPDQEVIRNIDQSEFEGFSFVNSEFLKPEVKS
Method: as §1

[3] = molecular target: T3, PKC-δ (Homo sapiens, UniProt Q05655); experiment: PKC-δ activity assay in situ in 293A cells; assay type: cell-based; design: The human PKC-δ open reading frame was also cloned in the same vectors; expressed in transfected cells; host or cells: HEK 293A; conditions: myristoylated peptide, last 2 h of starvation, FIG. 5B
T3 sequence (Q05655 whole entry): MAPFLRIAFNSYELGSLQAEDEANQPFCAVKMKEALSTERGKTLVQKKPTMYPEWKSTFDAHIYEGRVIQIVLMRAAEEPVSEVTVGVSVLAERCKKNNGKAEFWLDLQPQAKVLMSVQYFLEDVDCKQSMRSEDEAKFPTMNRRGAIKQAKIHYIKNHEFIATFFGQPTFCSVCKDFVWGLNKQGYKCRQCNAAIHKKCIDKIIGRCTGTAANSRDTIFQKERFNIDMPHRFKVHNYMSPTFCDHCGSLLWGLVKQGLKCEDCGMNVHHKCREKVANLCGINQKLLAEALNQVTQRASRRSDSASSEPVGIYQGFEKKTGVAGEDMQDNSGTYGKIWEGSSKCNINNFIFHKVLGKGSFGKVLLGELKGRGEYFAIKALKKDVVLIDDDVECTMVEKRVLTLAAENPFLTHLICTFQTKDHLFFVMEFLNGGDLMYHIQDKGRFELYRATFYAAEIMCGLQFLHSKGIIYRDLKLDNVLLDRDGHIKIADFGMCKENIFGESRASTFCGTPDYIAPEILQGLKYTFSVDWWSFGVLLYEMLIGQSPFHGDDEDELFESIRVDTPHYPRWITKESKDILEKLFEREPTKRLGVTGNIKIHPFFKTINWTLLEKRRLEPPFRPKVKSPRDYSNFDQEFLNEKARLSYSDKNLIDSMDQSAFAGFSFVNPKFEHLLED
Method: The PKC-δ activity assay in situ was performed by a modification of procedures detailed by Williams and Schrier (Williams et al., Glucose-Induced Protein Kinase C Activity Regulates Arachidonic Acid Release and Eicosanoid Production by Cultured Glomerular Mesangial Cells,” J. Clin. Invest. 92:2889-2896 (1993), which is hereby incorporated by reference in its entirety). Cells were seeded into 48-well plates and transfected with 0.1 μg/well pcDNA3-hBVR. After 24 h, the medium was replaced with a starvation medium (0.1% serum) and incubation continued for another 24 h to synchronize cells. In some wells, PKC inhibitor Rottlerin (20 μM) was added 30 min before addition of PMA (100 nM) for 15 min. In some wells, hBVR-derived peptides were introduced to cells in their myristoylated form. Cells were washed with medium and incubated for 10 min at 30° C. in 50 μl of kinase assay buffer (137 mM NaCl, 5.4 mM KCl, 10 mM MgCl2, 0.3 mM Na2HPO4, 0.4 mM KH2PO4, 25 mM β-glycerophosphate, 5.5 mM D-glucose, 5 mM EGTA, 1 mM CaCl2, 20 mM HEPES (pH 7.2), 50 μg/ml digitonin, 120 μg/ml of PKC-δ specific substrate (ARRKRKGSFFGG; SEQ ID NO: 52) and 100 μM ATP labeled with 10 μCi/ml [γ-^32P]-ATP). The reaction was stopped with the addition of 25 μl of ice-cold 30% (wt/vol) TCA. The TCA-soluble fraction samples were transferred to p81 phospho-cellulose filters. […]

[4] = molecular target: T3, PKC-δ; experiment: PMA-induced PKC-δ membrane translocation, confocal microscopy; assay type: cell-based; design: inserting the open reading frame of PKC-δ into the plasmid pDsRed2-C1; expressed in transfected cells; host or cells: 293A; conditions: 10 μM myristoylated peptide, PMA 15 min, FIG. 5E
Method: Confocal microscopy: Experimental protocols were based on those described by Edwards et al., “Carboxyl-Terminal Phosphorylation Regulates the Function and Subcellular Localization of Protein Kinase C betall,” J. Biol. Chem. 274:6461-6468 (1999), which is hereby incorporated by reference in its entirety. 293A cells were grown in a chamber slide system (Nalge-Nunc International Corp., Naperville, Ill.). Cells were transfected with pEGFP-hBVR and/or the plasmid expressing Ds2-Red-PKC-δ fusion protein. After a 24 h starvation period, cells were fixed for 10 min in 4% Para-formaldehyde in PBS and permeabilized with 1% Triton X-100 in PBS. The cells were mounted with Vectashield (Vector Laboratories, Inc. Burlingame, Calif.), containing DAPI to visualize the nuclei. Non-transfected cells were permeabilized as above, treated with 1:150 dilution of polyclonal anti-PKC-δ antibodies, washed, blocked, and then treated with polyclonal anti-hBVR antibodies. The PBS-washed cells were then treated with Rhodamine-red-conjugated donkey anti-rabbit IgG antibodies (Jackson ImmunoResearch, West Grove, Pa.) for 30 min, followed by mounting. A Leica TCS SP (model DMRE) confocal microscope was used (Maines et al., “Human Biliverdin Reductase: A Previously Unknown Activator of Protein Kinase C-βII,” J. Biol. Chem. 282:8110-8122 (2007), which is hereby incorporated by reference in its entirety).

## KRNRYLSF (Myristoyl-KRNRYLSF)
[1]
  effect of inhibitory peptide on PKC-ζ activity: responsive
[2]
  effect of inhibitory peptide on PKC-βII activity: essentially unaffected
[3]
  PKC-δ activity in cells transfected with pcDNA-PKC-δ and stimulated with PMA: inhibitory activity
[4]
  PKC-δ translocation to the cell membrane upon PMA: effectively inhibited
